{"source": "the DeepSol protein solubility set", "data": [{"test": "soluble on expression in E. coli; label from the status in PepcDB or PDB records", "values": [{"sequence": "AKAAGSSIGQQDTLVMLLNFKENPNDQPITSEEAHALVFGEVNDFYQENSYGKTWLSGQVAGWYTLPVSDQVCDYPSVQAEADKMARADGIVLEDYQR", "soluble on expression in E. coli": "not soluble"}, {"sequence": "MAHHHHHHMSVFEARQKVYATLHGTFHAAIVQEVAVDAETGQYLYYVHYVEQDSRMDCWLPASELKERRQGRQASKQQTNKSGGGGITTRGQSRLVAGKEDEVSRGPNTPTSSAKRSNLQNCVKVSTTRARKDSSFFSRPKNIHSICMGPYEVATWYFSPYHLARPQIQQGLKQNAELFSGKMELQLRQENKKSAFQTAVVPTSFVLHICPFCLHPFTAHEDVVRHLQIVCPRHPPGNEIYRDPVRQLVVLEMDAVVEPVFCEHLALLSKLFLEHKALDHDMTPFLFYVLCAVQPHGLEVLGYFSKEKQSPEMYNLSCILVLPQFQSRGIGRFLIELSYELSRREGRIGSPEKPLSDLGEKLYLGYWGDVIVSALARAIEENHCATLEYLVQATYLSQADVLRTLQYLRLLNGTQIVVSEESIERCYSRRLHRERSGKNYVFYPHLLSWSPHMYYELKEQDVAPPIYVTQSEELEQNAASKGQRVF", "soluble on expression in E. coli": "not soluble"}, {"sequence": "MSDVARILKEARDQGRLTALDFAKEIFDDFIELHGDRNFRDDGAVIGGIGRLNGQAVTVVGIQKGKNLQDNLNRNFGQPHPEGYRKALRLMKQAEKFGRSVVTFINTAGAYPGVGAEERGQGEAIARNLMEMSDLKVPIIAIIIGEGGSGGALALAVADKVWMLENTIYSILSPEGFATILWKDGSRSEEAAELMKITSGELLNMGIVDKVIPERGYFTSEIIEAIKTAIVDELAELSQLSTEDLLEARYQRFRKY", "soluble on expression in E. coli": "not soluble"}, {"sequence": "MSLSTLKRDHIKKNLRDTEYDVVIVGGGITGAGIALDASNRGMKVALVEMQDFAQGTSSRSTKLVHGGLRYLKQLQVGVVAETGKERAIVYENGPHVTTPEWMLLPMHKGGTFGKFSTSIGLAMYDRLAGVKKSERKKMLSKQETLNKEPLVKRDGLKGGGYYVEYRTDDARLTIEVMKKAAENGAEILNYTKSEHFTYDSNKKVNGIEVLDMIDGETYAIKAKKVINASGPWVDEVRSGDYARNNKQLRLTKGVHVVIDQSKFPLGQAVYFDTEKDGRMIFAIPREGKAYVGTTDTFYDNEKATPLTTQEDRDYLINAINYMFPTVNVKDEDIESTWAGIRPLILEKGKDPSEISRKDEVWEGESGLLTIAGGKLTGYRHMALEIVDLLAKRLKQEYGLKFESCATKNLKISGGDVGGSKNFEHFVEQKVDAAKGFGIDEDVARRLASKYGSNVDQLFNIAQTAPYHDSKLPLEIYVELVYSIQQEMVYKPTDFLVRRSGKLYFNIQDVLDYKNAVIDVMADMLNYSETQKEAYTEEVEVAIDEARTGNDQPATKALEHHHHHH", "soluble on expression in E. coli": "soluble"}, {"sequence": "MSLKAVIGISASEVTIQSGPFMGEPRTYVNAAYVDSVLKNGGIPLVIPFTAGGEEMAFKQLDLVDGLILSGGHDLNPHLYGEEIDQKSGETWPDRDAFDMALLKRAEETGKPVLGICRGAQIINVAHGGSMWQDLSLRPGNTLKHMQAIRPDVGTHVVKIKSGTTLKKIMGKSSLMTNSFHHQLIKEVAPDLTESASASDGVTEALESTDGKVIAVQWHPEEMHANPAPEAAIMNRLFKYLIDKAEEEKEGHHHHHH", "soluble on expression in E. coli": "soluble"}, {"sequence": "MGSDKIHHHHHHMETQTRKHSEQKHNSFNNSLEVWKLCFSYPDFVFVSCFNNSLEVWKPGKTLTYDSATNGFNNSLEVWKHSSEALFKAEFRRFNNSLEVWKHHRARRRTLLLPGFNNSLEVWKLIDFKYDSSHYSGFNNSLEVWKPFVLELPDACDCTCFNNSLEVWKPHHRGDSLIRCRVSIIP", "soluble on expression in E. coli": "not soluble"}, {"sequence": "TERFRLTLAQLNPTVGDLAGNAALARRAWDEARAAGSDMLALTEMFVTGYQTQDLVLRRAFVEEAMATIERLAADCAEGPAIGIGGPCLEDGRLMNAYWVLEGGRVSARVFKHHLPNAEVFDEKRVFSSGEVHGPCRVGPLRIGIPICEDSWHPDVCETLAETGAEILLVPNGSPYHREKLDVRVNLMVTRVVETGLPLVYLNMVGGQDDQVFDGASFVLNPHGRLMAQLPAFEEALVHVDFE", "soluble on expression in E. coli": "not soluble"}, {"sequence": "MSLVPRIAVLGCGHWGGNHIRTLQSLRALAAVSDVDSDRAASFASLYGVDAVAPDDLFTRRDIDALVLALPPQFHTENVLRAVKNGKDVLVEKPIALDVVDAECQVQAAREYGRILMVGHILRFHPAFEKISELVENGELGDVCYIYSHRLGFGKFHTQSDALWDLAPHDLSMILALTGCEPSEVRGEGAAVIDQCSDFAHIHMAFPNGIRSHLFASRLSPYRERRLMVVGTKAMLVFDDMEPWSRKVAFHPFAVWKENQEWAFSTDELSYINIYEDLPLTCELKHFLHCIETRQSPRTNGDDALAILRILTAAGVNYQKEGHHHHHH", "soluble on expression in E. coli": "soluble"}, {"sequence": "MGHHHHHHGGHMSLVRITWCPGCGNFAILKAFERASRRVIEEGFDIAVSSGIGCHGKISDYLSLPGFHVIHGRVPPFLTGLKLANPNLVVVGFSGDGDGLNEGVEHLVHAARRNTDITIILHNNGVFGLTTGQVTATSPRGRKSRSTPRGNPEYPLNPCHLMLVSGATFVARVFAGEQERLSEVFYNAMKHKGFSFVEVMQPCVSFNNFWEMRKEIYWIERSSDLLEAMKNCSDAKACGIFYAEEKETYEDAVWKSTFEGGS", "soluble on expression in E. coli": "soluble"}, {"sequence": "SAEFRVRVSTGEAFGAGTWDKVSVSIVGTRGESPPLPLDNLGKEFTAGAEEDFQVTLPEDVGRVLLLRVHKAPPVLPLLGPLAPDAWFCRWFQLTPPRGGHLLFPCYQWLEGAGTLVLQEGTAKVSWADHHPVLQQQRQEELQARQEMYQWKAYNPGWPHCLDEKTVEDLELNIKYSTAKNANFYLQAGSAFAEMKIKGLLDRKGLWRSLNEMKRIFNFRRTPAAEHAFEHWQEDAFFASQFLNGLNPVLIRRCHYLPKNFPVTDAMVASVLGPGTSLQAELEKGSLFLVDHGILSGIQTNVINGKPQFSAAPMTLLYQSPGCGPLLPLAIQLSQTPGPNSPIFLPTDDKWDWLLAKTWVRNAEFSFHEALTHLLHSHLLPEVFTLATLRQLPHCHPLFKLLIPHTRYTLHINTLARELLIVPGQVVDRSTGIGIEGFSELIQRNMKQLNYSLLCLPEDIRTRGVEDIPGYYYRDDGMQIWGAVEHFVSEIIGIYYPSDESVQDDRELQAWVREIFSKGFLNQESSGIPSSLETREALVQYVTMVIFTCSAKHAAVSAGQFDSCAWMPNLPPSMQLPPPTSKGLATCEGFIATLPPVNATCDVILALWLLSKEPGDQRPLGTYPDEHFTEEAPRRSIATFQSRLAQISRGIQERNRGLVLPYTYLDPPLIENSVSI", "soluble on expression in E. coli": "soluble"}, {"sequence": "MDLHSGLPYWVVKNSLLDYFHPLEDDFSTDIVVVGSGITGALMVHELCSAGLRCCMVDKRSIATGSSIASTALLQYEIDVPLCEMAEIIGEDNAVSAYRASLASIADIEKVLKETGVDADFEKRPSLFYASIPKDIELIEKEYVIRKKHNLPVRLLGKEEIKKLYNIEVPGNALLNRVSAQMDAYKATTGLLLYHMKKDGLEIFTHTGVTECVEMPEGYIIETDRGHKIECKYVIIASGFEAGKFLSREIMDLTSTYALVSHPVDSKDLWPEQCLIWETAEPYLYIRTTRGNRIIVGGEDEKFSDPERRDALLRKKTLVLEKKFRRLFPSIPFKTEMAWCGTFSTTKDGLPFIGNCPDKDRMFFDLGYGGNGITFSMIGAQIICKKLQGIDDERGRIFGYERIEKYWLEHHHHHH", "soluble on expression in E. coli": "not soluble"}, {"sequence": "MGSDKIHHHHHHMQVRRFGRTNWNVSEIGYGMWGASGWKGSDDSQSEQSLDLAVSKGVNFFDTAWGYGEGHSEQLLGKLVKRHQSKKIYVATKIPPMNFKWPSKKSYTIGECFPVSHIKEYTETSLKNLGVEKIDLMQFHVWEDAWATDESWQRAVEDLQKEGKVDAFGISVNRWEPENCLETLKTGLIDSVQVIYNIFDQAPEDALLPLCKKLDIAVIARVPFDEGTLTGTITKDTTFEEGDWRASYFVPENLISSAEHADRLRPILPSGMTMAEMALRFILMNDDIATTIPGMRKERNVLANTGVSDGKKLSLDLYNELKKHRWDREPTSWSQ", "soluble on expression in E. coli": "not soluble"}, {"sequence": "MNDKTTRGRASKVDLLPPNIKSTLTMMLRDKQYSQAEILEEINNIIADSGLDESMQLSKTGLNRFASKMERFGKKIREAREVAEVWTKQLVEAPQSDIGKLLMEAVKTMAFDLTLNADEAVANDPKFLNQLALIANRIEQAQSISEERERKVRKEVAQQAADTAEKVISQAGLSADTVAQIKQQILGIA", "soluble on expression in E. coli": "not soluble"}, {"sequence": "MIIGLLNQKGGVGKTTLSVNLAASFARTGARVLLIDVDPQGSALDWAAAREGAPLFPVVGLPRATVHKEITQIGHNYDHIIIDGPPRVTDLARSALMASDFVLIPVQPSPYDIWAADGIVKLIDEARVYKENLKSAFVINRKIVNTAIGRDVGEALGVYPVHVLSANVAQRVIFAEAATQGKTVYEVDKQGLAAAEIEAVAAEIKELAQLEHHHHHH", "soluble on expression in E. coli": "not soluble"}, {"sequence": "SLRIREIEPIVLTSKEKGSATWASIMIVTRVITENGEVGYGEAVPTLRVISVYNAIKQVSKAYIGKEVEEVEKNYHEWYKQDFYLARSFESATAVSAIDIASWDIIGKELGAPIHKLLGGKTRDRVPVYANGWYQDCVTPEEFAEKAKDVVKMGYKALKFDPFGPYYDWIDERGLREAEERVKAVREAVGDNVDILIEHHGRFNANSAIMIAKRLEKYNPGFMEEPVHHEDVIGLRKYKASTHLRVALGERLISEKETAFYVEEGLVNILQPDLTNIGGVTVGRSVIKIAEANDVEVAFHNAFGSIQNAVEIQLSAVTQNLYLLENFYDWFPQWKRDLVYNETPVEGGHVKVPYKPGLGVSINEKIIEQLRAEPIPLDVIEEPVWVVKGTWKNYGV", "soluble on expression in E. coli": "not soluble"}, {"sequence": "MIAQQFNRARHILRHNLVRPFYQPKFYLESGKLAGFEALLRWYDEDNQIQLPKLIINAFEDYSLASRLSEKMQLNIFKDMASWINQGLQLVPVSINAAPVEFLKDNYAELLLERLNQFEIPYHLIEIEITEHLLDDQGKNFISRALAKLKQNGIRIALDDFGTGHSSLTRLANLPVDCLKIDCDFVQRMEQEKFISALVQSVILMSNNLGIDVVAEGIESQEQLELLKQQGCEVGQGFLFSQA", "soluble on expression in E. coli": "not soluble"}, {"sequence": "MTQIARIRDNTSERRLQAERLIGARALQEAQALRFSVFSEEFNARLKGAEQGLDIDDYDIHCSHIGVRDLNTGRLVATTRLLDHKAANTLGSFYSEEEFSLHGLAHLQGPILELGRTCVDPAYRNGGTIAVLWSELAEVLNEGGYSYLMGCASIPMQDGGIQAHAIMQRLRERYLCNEHLRAEPKNPLPTLDIPSNVICEMPPLLKAYMRLGARICGEPCWDEDFQVADVFILLKRDDLCPRYARHFKAAV", "soluble on expression in E. coli": "not soluble"}, {"sequence": "MSAGPIVERNQDATIYVGGLDEKVSESILWELMVQAGPVVSVNMPKDRVTANHQGFGFVEFMGEEDADYAIKILNMIKLYGKPIKVNKASAHEKNMDVGANIFVGNLDPEVDEKLLYDTFSAFGVILQVPKIMRDVDSGTSKGFAFINFASFEASDTALEAMNGQFLCNRAITVSYAFKRDSKGERHGTAAERMLAAQNPLFPKDRPHQVFSDVPLGVPANTPLAMPGVHAAIAAHATGRPGYQPPPLMGMAQSGYQGQYPPVPPPPPSVTPMPPPMPPTPGMTPRPPPPPSSGMWPPPPPPPPGRTPGPPGMPGMPPPPPPSRFGPPGMGGMPPPPPPGMRYPGGMPPPPPPRYPSAGPGMYPPPPPSRPPAPPSGHGMIPPPPPPS", "soluble on expression in E. coli": "not soluble"}, {"sequence": "MSKKCLITGGAGFIGSHLAEELVGRGYNVTIVDNFYKGKNKYHDELMKEIRVIPISVLDKNSIYELVNQHDVVFHLAAILGVKTTMEKSIELIETNFDGTRNILQAALKGKKKVVFASTSEVYGKAKPPFSEEGDRLYGATSKIRWSYAICKTLEETLCLGYALEGLPVTIVRYFNIYGPRAKDGPYAGVIPRFISAALQGEDILVYGDGEQTRCFTYVSDAVEATIRAMDEKVNGEIINIGSENEKSIKEVAEVIKKLTDSSSKIVQVPFEEVYPHGFEEIPNRRPDVTKLKDLVQFQAKVTWEDGLKETIKWFREEDNG", "soluble on expression in E. coli": "soluble"}]}]}
